Data reported in the supplement of paper PMC10065799, “High-throughput profiling of sequence recognition by tyrosine kinases and SH2 domains using bacterial peptide display” (eLife, 2023).

Each sequence was assayed against Grb2 SH2 (UniProt P62993) (assay: SH2 binding enrichment of the phosphorylated peptide, bacterial display (enrichment ratio); higher = better substrate or ligand; peptides without Tyr show the background).
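For SH2 binding enrichment of the phosphorylated peptide, bacterial display in this document: peptide library displayed on the E. coli surface as eCPX fusions, selected cells deep-sequenced, score is each peptide's frequency after selection divided by its frequency in the input.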
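For phosphorylation enrichment, bacterial display in this document: 11-residue human phosphosite peptides and single-mutation variants displayed on the E. coli surface, counted by deep sequencing, each peptide's frequency after selection divided by its frequency in the unselected input library; frequency after pTyr selection over input frequency; kinase dosed for 20-30% of maximal phosphorylation in three min.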

Chain of Grb2 SH2 (P62993 whole entry, looked up, the tested form may be a part): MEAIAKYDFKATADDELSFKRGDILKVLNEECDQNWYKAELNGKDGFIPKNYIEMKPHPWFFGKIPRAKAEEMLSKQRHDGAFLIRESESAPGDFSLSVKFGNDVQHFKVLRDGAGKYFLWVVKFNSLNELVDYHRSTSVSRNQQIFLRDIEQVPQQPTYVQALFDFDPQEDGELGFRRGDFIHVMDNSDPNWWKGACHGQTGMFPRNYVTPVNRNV

Compared with DRLASDLDKVR [KRT10_Y160_Y160D], MDDKEYYSVHN [MET_Y1234_Y1230D] is higher in SH2 binding enrichment: 0.842 for the first, 0.952 for the second.

Going from ATHSRYRLNDF [CLDN14_Y233_G232R_YF] to VEQIHYIGQNE [HMOX2_Y140_R137Q], the SH2 binding enrichment falls from 0.935 to 0.834.

Going from LVMFIYDIFGM [SCN1A_Y1684_A1685D] to FSCLPYRRLAF [SLC52A2_Y305_G306R_YF], the SH2 binding enrichment falls from 1.74 to 0.677.

Compared with ESMLRYDVFGG [STOX1_Y607_E608D_YF], HNELYYEAAEH [VANGL1_Y345_E347A] is lower in SH2 binding enrichment: 1.1 for the first, 0.954 for the second.

Compared with SQPASYQRRFL [PPIG_Y320_L324F], VKPENYRRLDV [VHL_Y175_I180V] is higher in SH2 binding enrichment: 0.711 for the first, 0.778 for the second.

Compared with KLKRSYSSPDI [USP8_Y717], GTQGSYLLSRK [UGT3A1_Y123_C121G] is lower in SH2 binding enrichment: 0.698 for the first, 0.584 for the second.

First: KMKGDYFRFLA [YWHAG_Y130_YF]
Second: SNNFIYKTLGV [FAM83B_Y639_YF]
The SH2 binding enrichment of the first is higher: 1.71 for the first, 0.785 for the second.

Compared with SVTGTYSPALN [TP53_Y126_C124G], FSPGSYERETF [NF1_Y2192] is lower in SH2 binding enrichment: 0.852 for the first, 0.776 for the second.

Going from TQRPYYKGGGG [TYROBP_Y112] to SGETKYNPTEA [NBEAL2_Y2748_E2747K], the SH2 binding enrichment falls from 1.08 to 0.791.

Compared with YGCGMYSHLQG [LGR4_Y848_D844G], RRQDLYSARDL [SART1_Y249] is higher in SH2 binding enrichment: 0.854 for the first, 1.14 for the second.

Compared with ILGRYYETGSI [PAX2_Y73], KSRQIYDAYIM [GRK3_Y109_R104K] is higher in SH2 binding enrichment: 0.817 for the first, 0.955 for the second.

First: KVALLYKPFFF [POLE_Y100_P99L_YF]
Second: PIAPVYAASMV [ACAT1_Y331]
The SH2 binding enrichment of the first is higher: 1.78 for the first, 0.882 for the second.

Going from IVEFAYNDKAV [PUM3_Y259_I264V_YF] to PQQLWYTHEKK [UBTF_Y207], the SH2 binding enrichment rises from 0.85 to 1.2.

First: PVRIAYGRPRG [SUGP2_Y985_D986G]
Second: QGCGIYKDFFR [PLA2G2D_Y82_S80G_YF]
The SH2 binding enrichment of the first is lower: 0.837 for the first, 1.03 for the second.

Going from GSIQQYIFKQE [PRG4_Y1271_YF] to LKVDVYGRSHK [FUT3_Y222], the SH2 binding enrichment falls from 0.754 to 0.715.

Compared with EHFSYYGMKAV [SLC15A2_Y61_R57H], PELIDYGKLRK [ACTN1_Y193] is lower in SH2 binding enrichment: 0.923 for the first, 0.581 for the second.

With PRAEWYRDDVL [MYOM2_Y317] the SH2 binding enrichment was 0.802.

These sequences were tested against c-Src SH2 in the same assay as above.

First: DRLASDLDKVR [KRT10_Y160_Y160D]
Second: MDDKEYYSVHN [MET_Y1234_Y1230D]
The SH2 binding enrichment of the first is lower: 0.505 for the first, 0.557 for the second.

First: ATHSRYRLNDF [CLDN14_Y233_G232R_YF]
Second: VEQIHYIGQNE [HMOX2_Y140_R137Q]
The SH2 binding enrichment of the first is higher: 0.674 for the first, 0.465 for the second.

Going from LVMFIYDIFGM [SCN1A_Y1684_A1685D] to FSCLPYRRLAF [SLC52A2_Y305_G306R_YF], the SH2 binding enrichment falls from 1.67 to 0.47.

Compared with ESMLRYDVFGG [STOX1_Y607_E608D_YF], HNELYYEAAEH [VANGL1_Y345_E347A] is lower in SH2 binding enrichment: 1.56 for the first, 0.777 for the second.

First: SQPASYQRRFL [PPIG_Y320_L324F]
Second: VKPENYRRLDV [VHL_Y175_I180V]
The SH2 binding enrichment of the first is lower: 0.407 for the first, 0.465 for the second.

First: KLKRSYSSPDI [USP8_Y717]
Second: GTQGSYLLSRK [UGT3A1_Y123_C121G]
The SH2 binding enrichment of the first is higher: 0.413 for the first, 0.392 for the second.

Compared with KMKGDYFRFLA [YWHAG_Y130_YF], SNNFIYKTLGV [FAM83B_Y639_YF] is lower in SH2 binding enrichment: 1.22 for the first, 0.405 for the second.

Compared with SVTGTYSPALN [TP53_Y126_C124G], FSPGSYERETF [NF1_Y2192] is higher in SH2 binding enrichment: 0.415 for the first, 0.495 for the second.

Compared with TQRPYYKGGGG [TYROBP_Y112], SGETKYNPTEA [NBEAL2_Y2748_E2747K] is lower in SH2 binding enrichment: 0.93 for the first, 0.579 for the second.

First: YGCGMYSHLQG [LGR4_Y848_D844G]
Second: RRQDLYSARDL [SART1_Y249]
The SH2 binding enrichment of the first is higher: 1.96 for the first, 0.402 for the second.

First: ILGRYYETGSI [PAX2_Y73]
Second: KSRQIYDAYIM [GRK3_Y109_R104K]
The SH2 binding enrichment of the first is higher: 1.8 for the first, 0.683 for the second.

Going from KVALLYKPFFF [POLE_Y100_P99L_YF] to PIAPVYAASMV [ACAT1_Y331], the SH2 binding enrichment falls from 1.49 to 0.506.

First: IVEFAYNDKAV [PUM3_Y259_I264V_YF]
Second: PQQLWYTHEKK [UBTF_Y207]
The SH2 binding enrichment of the first is lower: 0.414 for the first, 0.833 for the second.

Compared with PVRIAYGRPRG [SUGP2_Y985_D986G], QGCGIYKDFFR [PLA2G2D_Y82_S80G_YF] is higher in SH2 binding enrichment: 0.364 for the first, 0.753 for the second.

Compared with GSIQQYIFKQE [PRG4_Y1271_YF], LKVDVYGRSHK [FUT3_Y222] is higher in SH2 binding enrichment: 0.362 for the first, 0.561 for the second.

First: EHFSYYGMKAV [SLC15A2_Y61_R57H]
Second: PELIDYGKLRK [ACTN1_Y193]
The SH2 binding enrichment of the first is higher: 0.951 for the first, 0.478 for the second.

Work on PRAEWYRDDVL [MYOM2_Y317] yielded an SH2 binding enrichment of 0.585.

These sequences were tested against SHP2-C SH2 in the same assay as above.

Going from DRLASDLDKVR [KRT10_Y160_Y160D] to MDDKEYYSVHN [MET_Y1234_Y1230D], the SH2 binding enrichment rises from 0.681 to 0.759.

First: ATHSRYRLNDF [CLDN14_Y233_G232R_YF]
Second: VEQIHYIGQNE [HMOX2_Y140_R137Q]
The SH2 binding enrichment of the first is higher: 0.825 for the first, 0.582 for the second.

First: LVMFIYDIFGM [SCN1A_Y1684_A1685D]
Second: FSCLPYRRLAF [SLC52A2_Y305_G306R_YF]
The SH2 binding enrichment of the first is higher: 2.28 for the first, 0.852 for the second.

Going from ESMLRYDVFGG [STOX1_Y607_E608D_YF] to HNELYYEAAEH [VANGL1_Y345_E347A], the SH2 binding enrichment falls from 0.627 to 0.606.

First: SQPASYQRRFL [PPIG_Y320_L324F]
Second: VKPENYRRLDV [VHL_Y175_I180V]
The SH2 binding enrichment of the first is lower: 0.61 for the first, 0.635 for the second.

First: KLKRSYSSPDI [USP8_Y717]
Second: GTQGSYLLSRK [UGT3A1_Y123_C121G]
The SH2 binding enrichment of the first is lower: 0.649 for the first, 0.821 for the second.

Going from KMKGDYFRFLA [YWHAG_Y130_YF] to SNNFIYKTLGV [FAM83B_Y639_YF], the SH2 binding enrichment falls from 1.6 to 0.45.

Going from SVTGTYSPALN [TP53_Y126_C124G] to FSPGSYERETF [NF1_Y2192], the SH2 binding enrichment falls from 0.747 to 0.612.

Compared with TQRPYYKGGGG [TYROBP_Y112], SGETKYNPTEA [NBEAL2_Y2748_E2747K] is lower in SH2 binding enrichment: 0.765 for the first, 0.533 for the second.

Going from YGCGMYSHLQG [LGR4_Y848_D844G] to RRQDLYSARDL [SART1_Y249], the SH2 binding enrichment falls from 0.991 to 0.767.

Going from ILGRYYETGSI [PAX2_Y73] to KSRQIYDAYIM [GRK3_Y109_R104K], the SH2 binding enrichment rises from 0.649 to 0.834.

First: KVALLYKPFFF [POLE_Y100_P99L_YF]
Second: PIAPVYAASMV [ACAT1_Y331]
The SH2 binding enrichment of the first is higher: 1.62 for the first, 0.699 for the second.

Compared with IVEFAYNDKAV [PUM3_Y259_I264V_YF], PQQLWYTHEKK [UBTF_Y207] is higher in SH2 binding enrichment: 0.787 for the first, 0.812 for the second.

Going from PVRIAYGRPRG [SUGP2_Y985_D986G] to QGCGIYKDFFR [PLA2G2D_Y82_S80G_YF], the SH2 binding enrichment rises from 0.506 to 1.38.

First: GSIQQYIFKQE [PRG4_Y1271_YF]
Second: LKVDVYGRSHK [FUT3_Y222]
The SH2 binding enrichment of the first is lower: 0.469 for the first, 0.621 for the second.

Going from EHFSYYGMKAV [SLC15A2_Y61_R57H] to PELIDYGKLRK [ACTN1_Y193], the SH2 binding enrichment falls from 0.816 to 0.6.

PRAEWYRDDVL [MYOM2_Y317] gave an SH2 binding enrichment of 0.637.

What follows are sequences tested against FGFR3 (UniProt P22607) (assay: phosphorylation enrichment, bacterial display (enrichment ratio); higher = better substrate or ligand; peptides without Tyr show the background).
Chain of FGFR3 (P22607 whole entry, looked up): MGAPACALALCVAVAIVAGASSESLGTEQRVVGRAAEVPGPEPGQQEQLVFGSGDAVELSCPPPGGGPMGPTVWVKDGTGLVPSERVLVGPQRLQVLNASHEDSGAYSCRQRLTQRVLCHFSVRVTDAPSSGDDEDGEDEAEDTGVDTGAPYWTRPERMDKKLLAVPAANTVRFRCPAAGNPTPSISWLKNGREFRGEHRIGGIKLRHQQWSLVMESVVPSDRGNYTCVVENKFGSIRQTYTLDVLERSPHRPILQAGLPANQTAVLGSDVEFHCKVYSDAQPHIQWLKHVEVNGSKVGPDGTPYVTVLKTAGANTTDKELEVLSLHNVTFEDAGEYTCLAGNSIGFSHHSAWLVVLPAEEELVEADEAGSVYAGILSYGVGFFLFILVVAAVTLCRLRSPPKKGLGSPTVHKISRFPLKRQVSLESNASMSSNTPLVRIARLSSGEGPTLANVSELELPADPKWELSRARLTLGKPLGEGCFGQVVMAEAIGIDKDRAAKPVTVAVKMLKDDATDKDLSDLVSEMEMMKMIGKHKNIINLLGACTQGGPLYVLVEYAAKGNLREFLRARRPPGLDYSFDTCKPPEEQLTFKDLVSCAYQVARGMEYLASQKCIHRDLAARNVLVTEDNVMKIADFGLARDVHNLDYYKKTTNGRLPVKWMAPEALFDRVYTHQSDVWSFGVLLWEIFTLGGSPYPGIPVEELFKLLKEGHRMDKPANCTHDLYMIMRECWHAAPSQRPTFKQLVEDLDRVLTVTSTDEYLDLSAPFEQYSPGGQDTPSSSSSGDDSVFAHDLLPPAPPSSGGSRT

First: DRLASDLDKVR [KRT10_Y160_Y160D]
Second: MDDKEYYSVHN [MET_Y1234_Y1230D]
The phosphorylation enrichment of the first is lower: 0.469 for the first, 1.88 for the second.

First: ATHSRYRLNDF [CLDN14_Y233_G232R_YF]
Second: VEQIHYIGQNE [HMOX2_Y140_R137Q]
The phosphorylation enrichment of the first is lower: 0.308 for the first, 0.612 for the second.

First: LVMFIYDIFGM [SCN1A_Y1684_A1685D]
Second: FSCLPYRRLAF [SLC52A2_Y305_G306R_YF]
The phosphorylation enrichment of the first is higher: 1.9 for the first, 0.568 for the second.

Compared with ESMLRYDVFGG [STOX1_Y607_E608D_YF], HNELYYEAAEH [VANGL1_Y345_E347A] is higher in phosphorylation enrichment: 0.685 for the first, 4.38 for the second.

Compared with SQPASYQRRFL [PPIG_Y320_L324F], VKPENYRRLDV [VHL_Y175_I180V] is higher in phosphorylation enrichment: 0.439 for the first, 0.506 for the second.

Compared with KLKRSYSSPDI [USP8_Y717], GTQGSYLLSRK [UGT3A1_Y123_C121G] is lower in phosphorylation enrichment: 0.461 for the first, 0.355 for the second.

Going from KMKGDYFRFLA [YWHAG_Y130_YF] to SNNFIYKTLGV [FAM83B_Y639_YF], the phosphorylation enrichment falls from 3.83 to 0.555.

Going from SVTGTYSPALN [TP53_Y126_C124G] to FSPGSYERETF [NF1_Y2192], the phosphorylation enrichment falls from 0.593 to 0.535.

First: TQRPYYKGGGG [TYROBP_Y112]
Second: SGETKYNPTEA [NBEAL2_Y2748_E2747K]
The phosphorylation enrichment of the first is lower: 0.455 for the first, 0.594 for the second.

Compared with YGCGMYSHLQG [LGR4_Y848_D844G], RRQDLYSARDL [SART1_Y249] is lower in phosphorylation enrichment: 0.998 for the first, 0.615 for the second.

Compared with ILGRYYETGSI [PAX2_Y73], KSRQIYDAYIM [GRK3_Y109_R104K] is lower in phosphorylation enrichment: 0.834 for the first, 0.546 for the second.

Going from KVALLYKPFFF [POLE_Y100_P99L_YF] to PIAPVYAASMV [ACAT1_Y331], the phosphorylation enrichment falls from 0.704 to 0.548.

Compared with IVEFAYNDKAV [PUM3_Y259_I264V_YF], PQQLWYTHEKK [UBTF_Y207] is lower in phosphorylation enrichment: 0.767 for the first, 0.481 for the second.

Compared with PVRIAYGRPRG [SUGP2_Y985_D986G], QGCGIYKDFFR [PLA2G2D_Y82_S80G_YF] is higher in phosphorylation enrichment: 0.64 for the first, 0.885 for the second.

Going from GSIQQYIFKQE [PRG4_Y1271_YF] to LKVDVYGRSHK [FUT3_Y222], the phosphorylation enrichment rises from 0.574 to 1.1.

First: EHFSYYGMKAV [SLC15A2_Y61_R57H]
Second: PELIDYGKLRK [ACTN1_Y193]
The phosphorylation enrichment of the first is higher: 6.68 for the first, 0.544 for the second.

Sequence PRAEWYRDDVL [MYOM2_Y317] has a phosphorylation enrichment of 0.818.
